Molecular target: T1, Y1R L26^NA/F28^NA mutant (printed L28^NA/F28^NA) (human, UniProt P25929 1-384, L26^N to A (the mutant's label is printed L28^NA; the same sentence names the …)
T1 sequence (looked up): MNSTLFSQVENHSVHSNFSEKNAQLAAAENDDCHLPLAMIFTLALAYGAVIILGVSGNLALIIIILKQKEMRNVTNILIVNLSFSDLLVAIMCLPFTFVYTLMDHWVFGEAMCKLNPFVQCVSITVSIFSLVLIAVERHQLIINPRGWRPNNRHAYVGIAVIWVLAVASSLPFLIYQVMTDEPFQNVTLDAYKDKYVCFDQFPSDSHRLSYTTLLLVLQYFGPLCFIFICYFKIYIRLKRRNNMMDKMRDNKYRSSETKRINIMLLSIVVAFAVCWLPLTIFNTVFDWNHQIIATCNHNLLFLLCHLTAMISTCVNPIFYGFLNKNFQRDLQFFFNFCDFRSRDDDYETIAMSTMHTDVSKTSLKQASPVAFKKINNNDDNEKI
Assay: cell-based or functional assay

NPY signalling, increase in EC50 against wild-type Y1R: 2.8 fold
B1: neuropeptide Y (NPY) (peptide)
peptide: not shown
modifications: C-terminal amide (amidated C-terminal residue Y36)
